Measurements published in PMC2962900, “Kinetics of Methylation by EcoP1I DNA Methyltransferase” (Enzyme Research, 2010).

Tests used:
purified protein = substrate: C[S+](CC[C@H](N)C(=O)O)C[C@H]1O[C@@H](n2cnc3c(N)ncnc32)[C@H](O)[C@@H]1O; assay: purified protein; conditions: Mg2+; DNA 1 μM (which DNA not stated); enzyme 400 nM; AdoMet 50 nM-2 μM; 30 min; labelled compound
[1] = target: the molecule itself; assay: SEC; Superose 6 HR 10/30, buffer B (10 mM Tris-HCl pH 7.4, 100 mM NaCl, 0.1 mM EDTA, 10% glycerol, 7 mM beta-mercaptoethanol), 0.2 mL/min; 3-15 uM M.EcoP1I loaded; column calibrated with marker proteins

Protein | Km (purified protein) [µM] | stoichiometry N [1]
EcoP1I DNA methyltransferase (M.EcoP1I) (Escherichia phage P1) (protein) MKKETIFSEVETANSKQLAVLKANFPQCFDKNGAFIQEKLLEIIRASEVELSKESYSLNWLGKSYARLLANLPPKTLLAEDKTHNQQEENKNSQNLLIKGDNLEVLKHMVNAYAEKVNMIYIDPPYNTGKDGFVYNDDRKFTPEQLSELAGIELDEANRILEFTTKGSSSHSAWLTFIYPRLYIARELLKEDGVIFISIDDNEDKQLGLLCDEVFGQGNFVAKLPTIMNLKGNHDNFGFSDTHEYIYVYAKNKDVCSLGQFDIDESEVEKEWDEDEYGLFKRADTLKRTGQDASRKSRPKGWFPVFINSENKVYVTDDDKPLNEDDYVLYPVSPTGEELSWSWGKKKINDEFYNLIVIDIKDGKNIYKKQRPALGELPTKKPKSIWYKPEYSTSTATTELKNLLGAKLFEGPKPVPLITDLVKIGTKKDSLVLDFFAGSGTTAEAVAYLNEKDSGCRNFICIQKDEVINKTKNAYSLGYRSIFEITKKRIQEVFKKSTTTSDNAAKIGFKVIHTIDDFRAKVESELTLTNHTFFDDAVLTPEQYDALLTTWCVYDGSLLTTPIEDVDLSGYTAHFCNGRLYLIAPNFTSEALKALLQKLDSDEDFAPNKVVFYGCNFESAKQRELNEALKSYANKKSIELDLVVRN | 0.5 | 
EcoP1I DNA methyltransferase (M.EcoP1I) (enzyme, bacteriophage P1, UniProt P08763 1-646, looked up, EcoP1I DNA methyltransferase, product of the mod gene of the EcoP1I Type III restriction-modification system of bacteriophage (prophage) P1; 1948 bp gene amplified with primers from the 5' and 3' ends of the open reading frame, cloned in the BamHI site of pET15b (construct pSN2); calculated mass ~75 kDa; No removal of the His6 tag is described. pET15b adds linker residues between the tag and the …) MKKETIFSEVETANSKQLAVLKANFPQCFDKNGAFIQEKLLEIIRASEVELSKESYSLNWLGKSYARLLANLPPKTLLAEDKTHNQQEENKNSQNLLIKGDNLEVLKHMVNAYAEKVNMIYIDPPYNTGKDGFVYNDDRKFTPEQLSELAGIELDEANRILEFTTKGSSSHSAWLTFIYPRLYIARELLKEDGVIFISIDDNEDKQLGLLCDEVFGQGNFVAKLPTIMNLKGNHDNFGFSDTHEYIYVYAKNKDVCSLGQFDIDESEVEKEWDEDEYGLFKRADTLKRTGQDASRKSRPKGWFPVFINSENKVYVTDDDKPLNEDDYVLYPVSPTGEELSWSWGKKKINDEFYNLIVIDIKDGKNIYKKQRPALGELPTKKPKSIWYKPEYSTSTATTELKNLLGAKLFEGPKPVPLITDLVKIGTKKDSLVLDFFAGSGTTAEAVAYLNEKDSGCRNFICIQKDEVINKTKNAYSLGYRSIFEITKKRIQEVFKKSTTTSDNAAKIGFKVIHTIDDFRAKVESELTLTNHTFFDDAVLTPEQYDALLTTWCVYDGSLLTTPIEDVDLSGYTAHFCNGRLYLIAPNFTSEALKALLQKLDSDEDFAPNKVVFYGCNFESAKQRELNEALKSYANKKSIELDLVVRN |  | 2
